Test system: bacterially-expressed calmodulin (non-methylated)

Xenopus laevis calmodulin protein methyltransferase, sequence (chain, as listed by the source): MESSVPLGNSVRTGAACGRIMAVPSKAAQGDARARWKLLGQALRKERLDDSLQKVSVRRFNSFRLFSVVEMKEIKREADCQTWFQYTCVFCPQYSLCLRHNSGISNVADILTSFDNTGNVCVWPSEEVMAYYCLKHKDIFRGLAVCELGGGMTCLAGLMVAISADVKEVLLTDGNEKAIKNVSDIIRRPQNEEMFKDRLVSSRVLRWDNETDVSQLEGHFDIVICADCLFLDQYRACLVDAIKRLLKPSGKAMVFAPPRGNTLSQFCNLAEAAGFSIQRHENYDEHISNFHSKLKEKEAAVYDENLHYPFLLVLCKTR

Substance | methyltransferase activity (in vitro) | catalytic activity | incorporation of radiolabel from [3H-methyl]AdoMet into calmodulin (phosphorimage) | specific activity
Arabidopsis thaliana calmodulin protein methyltransferase | Each of the proteins exhibited robust methyltransferase activity (in vitro) toward non-methylated forms of calmodulin | – | – | –
Homo sapiens calmodulin protein methyltransferase (valine at 209, catalytically active form) | Each of the proteins exhibited robust methyltransferase activity (in vitro) toward non-methylated forms of calmodulin | alteration of the sequence of the clone to correspond to the gene-predicted valine restored catalytic activity to amounts similar to those observed for other cloned calmodulin KMTs | the radiolabel from [^3H-methyl]AdoMet was incorporated into calmodulin, in the presence of the recombinant calmodulin methyltransferases obtained from SEQ ID NO: 1, 2, and 3 | –
Homo sapiens calmodulin protein methyltransferase, initially expressed clone with V209F (cDNA Accession BC 053733) | – | the initially expressed form of Hscalmodulin PKMT was catalytically inactive | – | –
Rattus norvegicus calmodulin protein methyltransferase | Each of the proteins exhibited robust methyltransferase activity (in vitro) toward non-methylated forms of calmodulin | – | the radiolabel from [^3H-methyl]AdoMet was incorporated into calmodulin, in the presence of the recombinant calmodulin methyltransferases obtained from SEQ ID NO: 1, 2, and 3 | 56 nmoles min^-1 mg protein^-1
Tribolium casteaneum calmodulin protein methyltransferase | Each of the proteins exhibited robust methyltransferase activity (in vitro) toward non-methylated forms of calmodulin | – | – | –
Xenopus laevis calmodulin protein methyltransferase | Each of the proteins exhibited robust methyltransferase activity (in vitro) toward non-methylated forms of calmodulin | – | the radiolabel from [^3H-methyl]AdoMet was incorporated into calmodulin, in the presence of the recombinant calmodulin methyltransferases obtained from SEQ ID NO: 1, 2, and 3 | –

From patent US20110166208
